The source of these data is patent US20160263155A1, “T CELL RECEPTORS DIRECTED AGAINST THE PREFERENTIALLY EXPRESSED ANTIGEN OF MELANOMA AND USES THEREOF” (LEIDEN UNIVERSITY MEDICAL CENTER, priority 2015, published 2016).

Substitutions are numbered along the chain they refer to. Names and notes keep the numbering of the source.

T1: PRAME peptide on HLA-A*02:01 (human)
T1 peptide: SLLQHLIGL

B1: AAV54 SLL (TCR, V domains shown)
Valpha: AQSVTQLGSHVSVSERALVLLRCNYSSSVPPYLFWYVQYPNQGLQLLLKYTSAATLVKGINGFEAEFKKSETSFHLTKPSAHMSDAAEYFCAVSGQTGANNLFFGTGTRLTVIP
Vbeta: DSGVTQTPKHLITATGQRVTLRCSPRSGDLSVYWYQQSLDQGLQFLIQYYNGEERAKGNILERFSAQQFPDLHSELNLSSLELGDSALYFCASARWDRGGEQYFGPGTRLTVT
B2: AAV46 SLL (TCR, V domains shown)
Valpha: GQQLNQSPQSMFIQEGEDVSMNCTSSSIFNTWLWYKQDPGEGPVLLIALYKAGELTSNGRLTAQFGITRKDSFLNISASIPSDVGIYFCAGIPRDNYGQNFVFGPGTRLSVLP
Vbeta: DVKVTQSSRYLVKRTGEKVFLECVQDMDHENMFWYRQDPGLGLRLIYFSYDVKMKEKGDIPEGYSVSREKKERFSLILESASTNQTSMYLCASTPWLAGGNEQFFGPGTRLTVL
B3: G402Y (protein)
chain: GFGDVGALESLRGNADLAYILSMEPCGHCLIINNVNFCRESGLRTRTGSNIDCEKLRRRFSSLHFMVEVKGDLTAKKMVLALLELAQQDHGALDCCVVVILSHGCQASHLQFPGAVYGTDGCPVSVEKIVNIFNGTSCPSLGGKPKLFFIQACGGEQKDHGFEVASTSPEDESPGSNPEPDATPFQEGLRTFDQLDAISSLPTPSDIFVSYSTFPGFVSWRDPKSGSWYVETLDDIFEQWAHSEDLQSLLLRVANAVSVKGIYKQMPYCFNFLRKKLFFKTS
B4: S144A (protein)
chain: B3 chain with S10A, Y268G
B5: C403P (protein)
chain: B3 chain with Y268G, C269P
B6: T317S (protein)
chain: B3 chain with T183S, Y268G
B7: S144D (protein)
chain: B3 chain with S10D, Y268G
B8: S196D (protein)
chain: B3 chain with S62D, Y268G

The first assay concerns the target T1, PRAME peptide on HLA-A*02:01. In words: multimer staining.
Conditions: not given
Turning to B1, the binding result is listed as “recognises”.

Take B2: the binding result is given as “recognises”.

For another assay, the system named is chimeric Caspase-9 polypeptide. In words: Caspase mutant classes and basal activity (Table 3). Format: cell-based, human. To be noted: class heading of Table 3.
Chain of chimeric Caspase-9 polypeptide (as listed by the source, change not shown): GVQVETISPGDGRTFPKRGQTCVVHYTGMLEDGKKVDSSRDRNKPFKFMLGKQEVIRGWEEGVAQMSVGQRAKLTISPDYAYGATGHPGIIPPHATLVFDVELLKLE
As for B3, the “Basal Activity” value is given as “dead”. With B4, the “Basal Activity” value is on record as “Decreased”. With B5, the “Basal Activity” value is on record as “dead”. In the case of B6, the “Basal Activity” value is given as “Decreased”. The same measure, in the same setting: the result for B7 reads “Decreased”.

Consider B8, for which the “Basal Activity” value is recorded as “Decreased”.
